First the molecules themselves.
T1: human neuromedin U receptor 1 (human, UniProt Q9HB89 24-426)
T1 sequence (looked up): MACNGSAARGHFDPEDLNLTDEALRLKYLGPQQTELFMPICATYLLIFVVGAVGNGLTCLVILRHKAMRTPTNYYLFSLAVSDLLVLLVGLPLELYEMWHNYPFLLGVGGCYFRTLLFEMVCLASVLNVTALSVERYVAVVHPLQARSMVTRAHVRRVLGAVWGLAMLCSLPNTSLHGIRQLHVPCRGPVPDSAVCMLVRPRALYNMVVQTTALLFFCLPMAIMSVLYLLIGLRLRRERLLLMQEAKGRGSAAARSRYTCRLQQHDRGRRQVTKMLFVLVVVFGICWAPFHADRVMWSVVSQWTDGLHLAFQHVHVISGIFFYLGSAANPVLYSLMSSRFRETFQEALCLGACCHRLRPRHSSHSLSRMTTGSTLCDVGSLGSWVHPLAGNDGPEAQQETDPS

B1: C18DA-gGlu3-Sar15-PipAc-Tyr-Phe-NMeLeu-Nle-Dbu-NMeAla-Arg-Gly-NH2 (peptide)
peptide: EEEXXXXXXXXXXXXXXXXYFLXXARG
HELM: PEPTIDE1{[O=C(O)CCCCCCCCCCCCCCCCC(=O)[*:2]].[gGlu].[gGlu].[gGlu].[Sar].[Sar].[Sar].[Sar].[Sar].[Sar].[Sar].[Sar].[Sar].[Sar].[Sar].[Sar].[Sar].[Sar].[Sar].[O=C(CN1CCN([*:1])CC1)[*:2]].Y.F.[meL].[Nle].[Dab].[meA].R.G.[am]}$$$$V2.0
SMILES: CCCC[C@H](NC(=O)[C@H](CC(C)C)N(C)C(=O)[C@H](Cc1ccccc1)NC(=O)[C@H](Cc1ccc(O)cc1)NC(=O)CN1CCN(C(=O)CN(C)C(=O)CN(C)C(=O)CN(C)C(=O)CN(C)C(=O)CN(C)C(=O)CN(C)C(=O)CN(C)C(=O)CN(C)C(=O)CN(C)C(=O)CN(C)C(=O)CN(C)C(=O)CN(C)C(=O)CN(C)C(=O)CN(C)C(=O)CN(C)C(=O)CC[C@H](NC(=O)CC[C@H](NC(=O)CC[C@H](NC(=O)CCCCCCCCCCCCCCCCC(=O)O)C(=O)O)C(=O)O)C(=O)O)CC1)C(=O)N[C@@H](CCN)C(=O)N(C)[C@@H](C)C(=O)N[C@@H](CCCNC(=N)N)C(=O)NCC(N)=O
B2: C20DA-gGlu3-Sar15-PipAc-Tyr-Phe-NMeLeu-Nle-Orn-Pro-Arg-Gly-NH2 (peptide)
peptide: EEEXXXXXXXXXXXXXXXXYFLXXPRG
HELM: PEPTIDE1{[O=C(O)CCCCCCCCCCCCCCCCCCC(=O)[*:2]].[gGlu].[gGlu].[gGlu].[Sar].[Sar].[Sar].[Sar].[Sar].[Sar].[Sar].[Sar].[Sar].[Sar].[Sar].[Sar].[Sar].[Sar].[Sar].[O=C(CN1CCN([*:1])CC1)[*:2]].Y.F.[meL].[Nle].[Orn].P.R.G.[am]}$$$$V2.0
SMILES: CCCC[C@H](NC(=O)[C@H](CC(C)C)N(C)C(=O)[C@H](Cc1ccccc1)NC(=O)[C@H](Cc1ccc(O)cc1)NC(=O)CN1CCN(C(=O)CN(C)C(=O)CN(C)C(=O)CN(C)C(=O)CN(C)C(=O)CN(C)C(=O)CN(C)C(=O)CN(C)C(=O)CN(C)C(=O)CN(C)C(=O)CN(C)C(=O)CN(C)C(=O)CN(C)C(=O)CN(C)C(=O)CN(C)C(=O)CN(C)C(=O)CC[C@H](NC(=O)CC[C@H](NC(=O)CC[C@H](NC(=O)CCCCCCCCCCCCCCCCCCC(=O)O)C(=O)O)C(=O)O)C(=O)O)CC1)C(=O)N[C@@H](CCCN)C(=O)N1CCC[C@H]1C(=O)N[C@@H](CCCNC(=N)N)C(=O)NCC(N)=O
B3: C18DA-gGlu3-Sar15-PipAc-Tyr-Phe-NMeLeu-Nle-Dbu-Pro-Arg-Gly-NH2 (peptide)
peptide: EEEXXXXXXXXXXXXXXXXYFLXXPRG
HELM: PEPTIDE1{[O=C(O)CCCCCCCCCCCCCCCCC(=O)[*:2]].[gGlu].[gGlu].[gGlu].[Sar].[Sar].[Sar].[Sar].[Sar].[Sar].[Sar].[Sar].[Sar].[Sar].[Sar].[Sar].[Sar].[Sar].[Sar].[O=C(CN1CCN([*:1])CC1)[*:2]].Y.F.[meL].[Nle].[Dab].P.R.G.[am]}$$$$V2.0
SMILES: CCCC[C@H](NC(=O)[C@H](CC(C)C)N(C)C(=O)[C@H](Cc1ccccc1)NC(=O)[C@H](Cc1ccc(O)cc1)NC(=O)CN1CCN(C(=O)CN(C)C(=O)CN(C)C(=O)CN(C)C(=O)CN(C)C(=O)CN(C)C(=O)CN(C)C(=O)CN(C)C(=O)CN(C)C(=O)CN(C)C(=O)CN(C)C(=O)CN(C)C(=O)CN(C)C(=O)CN(C)C(=O)CN(C)C(=O)CN(C)C(=O)CC[C@H](NC(=O)CC[C@H](NC(=O)CC[C@H](NC(=O)CCCCCCCCCCCCCCCCC(=O)O)C(=O)O)C(=O)O)C(=O)O)CC1)C(=O)N[C@@H](CCN)C(=O)N1CCC[C@H]1C(=O)N[C@@H](CCCNC(=N)N)C(=O)NCC(N)=O
B4: C20DA-gGlu3-Sar12-PipAc-Tyr-Phe-NMeLeu-Nle-Arg-Pro-Arg-Gly-NH2 (peptide)
peptide: EEEXXXXXXXXXXXXXYFLXRPRG
HELM: PEPTIDE1{[O=C(O)CCCCCCCCCCCCCCCCCCC(=O)[*:2]].[gGlu].[gGlu].[gGlu].[Sar].[Sar].[Sar].[Sar].[Sar].[Sar].[Sar].[Sar].[Sar].[Sar].[Sar].[Sar].[O=C(CN1CCN([*:1])CC1)[*:2]].Y.F.[meL].[Nle].R.P.R.G.[am]}$$$$V2.0
SMILES: CCCC[C@H](NC(=O)[C@H](CC(C)C)N(C)C(=O)[C@H](Cc1ccccc1)NC(=O)[C@H](Cc1ccc(O)cc1)NC(=O)CN1CCN(C(=O)CN(C)C(=O)CN(C)C(=O)CN(C)C(=O)CN(C)C(=O)CN(C)C(=O)CN(C)C(=O)CN(C)C(=O)CN(C)C(=O)CN(C)C(=O)CN(C)C(=O)CN(C)C(=O)CN(C)C(=O)CC[C@H](NC(=O)CC[C@H](NC(=O)CC[C@H](NC(=O)CCCCCCCCCCCCCCCCCCC(=O)O)C(=O)O)C(=O)O)C(=O)O)CC1)C(=O)N[C@@H](CCCNC(=N)N)C(=O)N1CCC[C@H]1C(=O)N[C@@H](CCCNC(=N)N)C(=O)NCC(N)=O
B5: C18DA-gGlu3-Sar9-AEPipAc-Tyr-Phe-NMeLeu-Nle-Arg-NMeAla-Arg-Gly-NH2 (peptide)
peptide: EEEXXXXXXXXXXYFLXRARG
HELM: PEPTIDE1{[O=C(O)CCCCCCCCCCCCCCCCC(=O)[*:2]].[gGlu].[gGlu].[gGlu].[Sar].[Sar].[Sar].[Sar].[Sar].[Sar].[Sar].[Sar].[Sar].[O=C(CN1CCN(CCN[*:1])CC1)[*:2]].Y.F.[meL].[Nle].R.[meA].R.G.[am]}$$$$V2.0
SMILES: CCCC[C@H](NC(=O)[C@H](CC(C)C)N(C)C(=O)[C@H](Cc1ccccc1)NC(=O)[C@H](Cc1ccc(O)cc1)NC(=O)CN1CCN(CCNC(=O)CN(C)C(=O)CN(C)C(=O)CN(C)C(=O)CN(C)C(=O)CN(C)C(=O)CN(C)C(=O)CN(C)C(=O)CN(C)C(=O)CN(C)C(=O)CC[C@H](NC(=O)CC[C@H](NC(=O)CC[C@H](NC(=O)CCCCCCCCCCCCCCCCC(=O)O)C(=O)O)C(=O)O)C(=O)O)CC1)C(=O)N[C@@H](CCCNC(=N)N)C(=O)N(C)[C@@H](C)C(=O)N[C@@H](CCCNC(=N)N)C(=O)NCC(N)=O
B6: C18DA-gGlu3-Sar9-AEPipAc-Tyr-Phe-NMeLeu-Nle-hLys-Pro-Arg-Gly-NH2 (peptide)
peptide: {C18 diacid}-[γGlu][γGlu][γGlu][Sar][Sar][Sar][Sar][Sar][Sar][Sar][Sar][Sar][Pipz(1-CH2CO,4-CH2CH2NH)]YF[NMeL][Nle][hLys]PRG-NH2
SMILES: CCCC[C@H](NC(=O)[C@H](CC(C)C)N(C)C(=O)[C@H](Cc1ccccc1)NC(=O)[C@H](Cc1ccc(O)cc1)NC(=O)CN1CCN(CCNC(=O)CN(C)C(=O)CN(C)C(=O)CN(C)C(=O)CN(C)C(=O)CN(C)C(=O)CN(C)C(=O)CN(C)C(=O)CN(C)C(=O)CN(C)C(=O)CC[C@H](NC(=O)CC[C@H](NC(=O)CC[C@H](NC(=O)CCCCCCCCCCCCCCCCC(=O)O)C(=O)O)C(=O)O)C(=O)O)CC1)C(=O)N[C@@H](CCCCCN)C(=O)N1CCC[C@H]1C(=O)N[C@@H](CCCNC(=N)N)C(=O)NCC(N)=O
B7: C18DA-gGlu3-Sar15-PipAc-Tyr-Phe-NMeLeu-Nle-Arg-Pro-Arg-Gly-NH2 (peptide)
peptide: EEEXXXXXXXXXXXXXXXXYFLXRPRG
HELM: PEPTIDE1{[O=C(O)CCCCCCCCCCCCCCCCC(=O)[*:2]].[gGlu].[gGlu].[gGlu].[Sar].[Sar].[Sar].[Sar].[Sar].[Sar].[Sar].[Sar].[Sar].[Sar].[Sar].[Sar].[Sar].[Sar].[Sar].[O=C(CN1CCN([*:1])CC1)[*:2]].Y.F.[meL].[Nle].R.P.R.G.[am]}$$$$V2.0
SMILES: CCCC[C@H](NC(=O)[C@H](CC(C)C)N(C)C(=O)[C@H](Cc1ccccc1)NC(=O)[C@H](Cc1ccc(O)cc1)NC(=O)CN1CCN(C(=O)CN(C)C(=O)CN(C)C(=O)CN(C)C(=O)CN(C)C(=O)CN(C)C(=O)CN(C)C(=O)CN(C)C(=O)CN(C)C(=O)CN(C)C(=O)CN(C)C(=O)CN(C)C(=O)CN(C)C(=O)CN(C)C(=O)CN(C)C(=O)CN(C)C(=O)CC[C@H](NC(=O)CC[C@H](NC(=O)CC[C@H](NC(=O)CCCCCCCCCCCCCCCCC(=O)O)C(=O)O)C(=O)O)C(=O)O)CC1)C(=O)N[C@@H](CCCNC(=N)N)C(=O)N1CCC[C@H]1C(=O)N[C@@H](CCCNC(=N)N)C(=O)NCC(N)=O
B8: C18DA-gGlu3-Sar12-PipAc-Tyr-Phe-NMeLeu-Nle-Arg-Pro-Arg-Gly-NH2 (peptide)
peptide: EEEXXXXXXXXXXXXXYFLXRPRG
HELM: PEPTIDE1{[O=C(O)CCCCCCCCCCCCCCCCC(=O)[*:2]].[gGlu].[gGlu].[gGlu].[Sar].[Sar].[Sar].[Sar].[Sar].[Sar].[Sar].[Sar].[Sar].[Sar].[Sar].[Sar].[O=C(CN1CCN([*:1])CC1)[*:2]].Y.F.[meL].[Nle].R.P.R.G.[am]}$$$$V2.0
SMILES: CCCC[C@H](NC(=O)[C@H](CC(C)C)N(C)C(=O)[C@H](Cc1ccccc1)NC(=O)[C@H](Cc1ccc(O)cc1)NC(=O)CN1CCN(C(=O)CN(C)C(=O)CN(C)C(=O)CN(C)C(=O)CN(C)C(=O)CN(C)C(=O)CN(C)C(=O)CN(C)C(=O)CN(C)C(=O)CN(C)C(=O)CN(C)C(=O)CN(C)C(=O)CN(C)C(=O)CC[C@H](NC(=O)CC[C@H](NC(=O)CC[C@H](NC(=O)CCCCCCCCCCCCCCCCC(=O)O)C(=O)O)C(=O)O)C(=O)O)CC1)C(=O)N[C@@H](CCCNC(=N)N)C(=O)N1CCC[C@H]1C(=O)N[C@@H](CCCNC(=N)N)C(=O)NCC(N)=O

The record followed here is patent publication US20240279278A1, “NMU RECEPTOR 2 AGONISTS” (Boehringer Ingelheim International GmbH, priority 2023, published 2024).

Starred links: 1 amine or outer side, 2 acyl side, 3 side chain; linkers in the order of their positions; H or OH if unused. Non-standard residues stand in square brackets, D forms with d. *: point of attachment. Pipz(1-CH2CO,4-CH2CH2NH) = O=C(CN1CCN(CCN[*:1])CC1)[*:2]; C18 diacid = O=C(O)CCCCCCCCCCCCCCCCC(=O)*; γGlu = O=C(O)[C@H](CCC(=O)[*:2])N[*:1]; NMeL = CN[C@@H](CC(C)C)C(=O)O; hLys = NCCCCC[C@H](N)C(=O)O; Nle = CCCC[C@H](N)C(=O)O; Sar = CNCC(=O)O Where only a bound is given, the exact number is not on record here.

This test deals with T1, human neuromedin U receptor 1. Description: cell-based or functional assay.
Take B1: the “EC50 (hNMUR1) buffer” value is more than 1000 nM.
As for B2, the figure is 470 nM.
Under B3 stands 1100 nM.
Under B4 stands 72 nM.
B5: the “EC50 (hNMUR1) buffer” value came out at 540 nM.
As for B6, the figure is 1400 nM; as for B7, 130 nM; as for B8, 110 nM.
